Literature values as cited in paper PMC4657025.
Like-named read-outs stand apart in the source and are kept apart here.

Experiments:
[1] = target: Asp96 (UniProt position 109, …); experiment: not stated in the text (title of ref 19 indicates FTIR spectroscopy); details: dark state (unphotolysed BR)
[2] = target: Asp85 (UniProt position 98, …)
[3] = target: Asp85 (UniProt position 98, …); details: 150 mM NaCl

B1: Bacteriorhodopsin (BR) (Halobacterium salinarum) (protein)
chain: QAQITGRPEWIWLALGTALMGLGTLYFLVKGMGVSDPDAKKFYAITTLVPAIAFTMYLSMLLGYGLTMVPFGGEQNPIYWARYADWLFTTPLLLLDLALLVDADQGTILALVGADGIMIGTGLVGALTKVYSYRFVWWAISTAAMLYILYVLFFGFTSKAESMRPEVASTFKVLRNVTVVLWSAYPVVWLIGSEGAGIVPLNIETLLFMVLDVSAKVGFGLILLRSRAIFGEAEAPEPSAGDGAAATSD
- pKa [1]: >11
- pKa [2]: 2.7
- pKa ([2]; 150 mM NaCl): 2.5

B2: Bacteriorhodopsin R82Q mutant (Halobacterium salinarum; R82Q) (protein)
chain: QAQITGRPEWIWLALGTALMGLGTLYFLVKGMGVSDPDAKKFYAITTLVPAIAFTMYLSMLLGYGLTMVPFGGEQNPIYWAQYADWLFTTPLLLLDLALLVDADQGTILALVGADGIMIGTGLVGALTKVYSYRFVWWAISTAAMLYILYVLFFGFTSKAESMRPEVASTFKVLRNVTVVLWSAYPVVWLIGSEGAGIVPLNIETLLFMVLDVSAKVGFGLILLRSRAIFGEAEAPEPSAGDGAAATSD
- pKa [3]: 7.2
